The target in this test is C18-V peptide presented by HLA-A*02:01 on peptide-pulsed T2 cells (Homo sapiens HLA-A*02:01 and B2M (T2 …)). As to the kind of experiment: flow cytometry on cells. In general terms: A flow cytometer gives signals particle by particle.

B1: MUR35 Fab (anti-C18-MHC TCR-mimic antibody clone MUR35) (Fab, V domains shown)
VH: EVQLQQSGPELVKPGASVKISCKASGYTFTDHFMNWVRQSHGKSLEWIGDINPNNGGTSYNQKFKGKATLTVDKSSSTAFMEVRSLTSDDSAVYYCARRGYYGSFDYWGQGTTLTVSS
VL: EIVMTQSPATLSLSPGERATLSCRASQGVSSSYFSWYQQTPGQAPRLLISGASTRATGIPARFSGSGSGTDFTLTISSLQPEDFAVYYCQQDYNLPYTFGQGTKLEIK
As for B1, the binding result is “binds”.

B2: MUR14 Fab (anti-C18-MHC antibody clone MUR14) (Fab, V domains shown)
VH: EVQLQQSGPELVKPGASVKISCKASGYTFTDYFMNWVKQSHGKSLEWIGDINPNNGGTSYNQKFKGKATLTVDKSSSTAYMELRSLTSEDSAVYYCARGLYDGYYVGFAYWGQGTLVTVSA
VL: EIVMTQSPATLSLSPGERATLSCRASQSVSSSYLSWYQQKPGQAPRLLIYGASTRATGLPARFSGSGSGTDFTLTISSLQPEDFAVYYCHQDYNLPYTFGQGTKLEIK
With B2, the binding result is on record as “binds”.

The record behind these values is article PMC12461897 (mAbs, 2025).
